From the DeepSol protein solubility set

test: soluble on expression in E. coli; label from the status in PepcDB or PDB records

| Sequence | soluble on expression in E. coli |
| --- | --- |
| MPEKKSLLEVPPELVFSGPFDHVITTYMTLTNISQSPVCFLVKTTVPNSYCVRPNRGILNIGDSKQIEVMLQPLEKVPPDAKQHKFLVQSCVAPSIDVSDLESVWKNVKPDELTYNRLVVTFVDNTDSKSNIECEICTLEFSSVVDNQIPRILQCGHSICQSCASKLAKNCVILCPFCRNETNVSSVASLPKNFALLQAIDQKTLRVPPLEIAKLRQQLSCQLSKLEEQVSKTDKSIKAVGRAQLSNLKDGREFQERKDSIVSYYASIRETINALENEAIGKLHTIADMNVSKNALLVAELSEILKHQNLKIAELKLSMEMDDVELATRSLTDSGTECAVVKPAVLDVALTFPEIDKMALLSMTTKFPSNFSTV | not soluble |
| MPELPEVETIRRTLLPLIVGKTIEDVRIFWPNIIRHPRDSEAFAARMIGQTVRGLERRGKFLKFLLDRDALISHLRMEGRYAVASALEPLEPHTHVVFCFTDGSELRYRDVRKFGTMHVYAKEEADRRPPLAELGPEPLSPAFSPAVLAERAVKTKRSVKALLLDCTVVAGFGNIYVDESLFRAGILPGRPAASLSSKEIERLHEEMVATIGEAVMKGGSTVRTYVNTQGEAGTFQHHLYVYGRQGNPCKRCGTPIEKTVVAGRGTHYCPRCQR | soluble |
| MPEPTADAPTVPKARSCPFLPPDGIADIRAAAPVTRATFTSGHEAWLVTGYEEVRALLRDSSFSVQVPHALHTQDGVVTQKPGRGSLLWQDEPEHTSDRKLLAKEFTVRRMQALRPNIQRIVDEHLDAIEARGGPVDLVKTFANAVPSMVISDLFGVPVERRAEFQDIAEAMMRVDQDAAATEAAGMRLGGLLYQLVQERRANPGDDLISALITTEDPDGVVDDMFLMNAAGTLLIAAHDTTACMIGLGTALLLDSPDQLALLREDPSLVGNAVEELLRYLTIGQFGGERVATRDVELGGVRIAKGEQVVAHVLAADFDPAFVEEPERFDITRRPAPHLAFGFGAHQCIGQQLARIELQIVFETLFRRLPGLRLAKPVEELRFRHDIVFYGVHELPVTWHHHH | soluble |
| MPEQDIASLISEHRILLEEAVREVIRRYPQSLSPSENFSKHIFSSEQLKNIIDTVLAEAWQQSAMVVITLCDEKGECVLTYRMPGTSAEDIAVAGRAAEAAVSFAKENKQIIDPTLHNVIGGIDTSRGGCVVYCAGKVIGGIGISGASAEKNHLIALRAVDSLKSGSQK | not soluble |
| MPESTNFTEEITQWVESLPNWGKAAVAGGVALAVYIPYKFMATRPRKSPLNENWKPDVVYLYQFPRARLLPNLSPFCMKVETWLRMSDITYEIPPCSLSTRSQEGTLPFVELNGKEYYDSSFILRDIDQVIKHTSLDDHLSAEQKATSRAFEAMSEKSLAISACYYRMENVEKMLDQFDPKLFGIFGFLFKLIGSRTYVSALLRRITGSDIGFHSREDIINIGSEDLKAISKYLGNKHYFHGFKPTKVDACIFSHLCQIYYAPYTSEHRDLIDGECKNLAEYVERIKNRFYPDWDDVTTKFSTDTSNWKKRHVARNGNGKH | not soluble |
| MPFIDLQSKLGINVDKWLLAQSGEQPRKRAAFCHAFEKEWIECSHAIGKTRASKECNIEWEDFYECMHRFKTMKRLKEISTQKEKMIKEGTYTPPPHHTGKGEPLS | not soluble |
| MPFWGAGIKILHISEDFRTVKVRLKLRWWNKNANRTQYGGSIFSLTDPIYSLMLMGILREEYYVWDKEASINFIKPGQSDLFAEFEITDGMLDEIYQMTRNGEKCFPEFITHVKDKQGNVVSEVQRKLYVRKLEHHHHHH | not soluble |
| MPGIIQIDDMNQSQALIGNNDEHLKAIEESFDVVIHARGQEVAVKGTKIENVEKAESVLINLLKVIDLGNNITIKDVEAAIKMAHNNTIQHLLDLYDEEITKDAFGKTIRAKTMGQRIYVNAMKNNDLVFGIGPAGTGKTFLAVVYAAKQLRKGAVKRIVLTRPAVEAGESLGFLPGDLKEKVDPYLRPLYDGLYTVLGREQTERFIERGIIEIAPLAYMRGRTLEDAFVILDEAQNTTHAQMKMFLTRLGFGSKMVVTGDQTQIDLPKGVKSGLKEAVSRLHNVKGISILKLDQSDVVRHPLVSKIIEHYEGEN | not soluble |
| MPGKNEYAVESLLTVGNGFLGLRGTTPEMTISDDHYPATYIAGLYNTAASEVAGQVVENEDFVNAPDNQHIALKIGDATDWLTISPDTLQQLHRQLNLKTGLFVAEMILKDADNQQIKLTTKKIANMAQPNDYHLQYTFEPLNFSAPITLKTVTDGSVYNYNVARYRNLTAKHFQVTALSAQENKTVIEVCTNQSNLSVRETSLITGDFFEKEAITIQEEAEKIAQVVTVMAHQGTRYTLEKQVFVQASHAEQSWQVPFTPKDSFAAAAQESARAWQTLWQQANITVTGDLMSQKLLRIHSYHLLASASPFSNQAQALDVSITARGLHGEAYRGHIFWDEIFILPFYIQHYPDTAKQLLLYRYHRLEKAKENAAASQYRGAMYPWQSGRDGRETTQKLHLNPLNGHWGEDHSILQRHVSLAIAYNAWLYWHSTQDHEFMKQYGGEMLLEIAQFWNSAATLDDATGRFFIDKVMGPDEFHEGYPDQAESGLKNNAYTNLMVVWLFEELTNILALFSEEEQAQLFAKTQTTSADLARMQQIQNSLEIEVNSDGIIAQYEGYFGLKEIDWTAMKEKYGNIYRMDRILKAEGESPDDYKVAKQADTLMLFYNLDKTRVDQILEDLGYQLPADYLEKNLLYYLKRTSHGSTLSRIVHAQLAEMAQFHELSWQLYQEALYSDYRDIQGGTTAEGIHTGVMAATIHVTLATYAGVDTRQNELSICPNLPEHWQALAFQFIHQGVTYQFSLTQTSVTITADRDTQLLVQGALIPLTAERPKEVHYQ | not soluble |
| MPGRFELKPTLAKIWHAPDNFRIMEPLPPMHRRGIIIAAIVLVIGFLLPASETSDSPVVTREAQLDLQSQSQPPTEAQLQAQLVAPQNDPDQVAPVAPEPIQEGQPEEQNQPQTQPFQQDSGIGQQWRSYRVESGKTLAQLFRDHGLPPTDVYAMAQVEGAGKPLSNLKNGQMIKIRQNASGVVTGLTIDGDNGQQVLFTRQPDGSFIRAQ | not soluble |
| MPGTEKTQHISLTTQVENRLKHQLSIGALKPGARLITKNIAQELGVSITPVREALLRLVSSSALAVAPAQAFMVPEISLESLLEINTIRTALEEMAVVAAAGKITPDREQTLNALLDEFQQALESGVMEKILLANRAFRFEIYHYADMPTLYAMIEQLWVRLGPSLHFLYDNFKLDDYQNGVNLYRKLLNALVTGDKEASRHCLQNVLQQNVATIKNQYFM | not soluble |
| MPGTKRFQHVIETPEPGKWELSGYEAAVPITEKSNPLTQDLDKADAENIVRLLGQCDAEIFQEEGQALSTYQRLYSESILTTMVQVAGKVQEVLKEPDGGLVVLSGGGTSGRMAFLMSVSFNQLMKGLGQKPLYTYLIAGGDRSVVASREGTEDSALHGIEELKKVAAGKKRVIVIGISVGLSAPFVAGQMDCCMNNTAVFLPVLVGFNPVSMARNDPIEDWSSTFRQVAERMQKMQEKQKAFVLNPAIGPEGLSGSSRMKGGSATKILLETLLLAAHKTVDQGIAASQRCLLEILRTFERAHQVTYSQSPKIATLMKSVSTSLEKKGHVYLVGWQTLGIIAIMDGVECIHTFGADFRDVRGFLIGDHSDMFNQKAELTNQGPQFTFSQEDFLTSILPSLTEIDTVVFIFTLDDNLTEVQTIVEQVKEKTNHIQALAHSTVGQTLPIPLKKLFPSIISITWPLLFFEYEGNFIQKFQRELSTKWVLNTVSTGAHVLLGKILQNHMLDLRISNSKLFWRALAMLQRFSGQSKARCIESLLRAIHFPQPLSDDIRAAPISCHVQVAHEKEQVIPIALLSLLFRCSITEAQAHLAAAPSVCEAVRSALAGPGQKRTADPLEILEPDVQ | soluble |
| MPGTLSFPSDAFPAYPALEIDQPDGWVALAGVGLPLALAAEVPSGQFRPNVLVTVQRFGVGHTVADSRSAVNKSLKALPRFTQTLREDSIEMLGSPGMRVEGYFSDGKGGTMVQALRMCVVEAGPVFDVVQITGTCSGPQTEAFFGQIREIQDTLRLAG | not soluble |
| MPGTTDQIDVNVEVKEKPTGAVMFGAGYSNMEGLILSGSVAQDNIFGTGKFVNLMVNTGSVNKTYSLSYTDPYFTKDGVTAGLDLYKRVLNTRTLSSVMNFNTDTLGAGLRFGIPINENDSIMGGLGAEQTTIDLGPDSPQRNIDFVNKFGRTTINIPATLSWRRDGRDSAIWTTSGTTQRVFAEVGLPGGDLTYYKLSYDLRWYFPITEIFTLMLNGELGYGDGYSGKELPFFKNFFAGGNTSVRGYNISSLGPRDATNRTLGGNKRAVGNIEVLFPMPGMRNDRTVRLSAFLDGGTVWGPGGVRPDQEGLRYSAGIAVTWISPMGPLKISVAQPLNSQPGDNIQRFQFQFGQQFLEHHHHHH | soluble |
| MPIHHAIVHLIEKKPDGTPAVLHARDAELGDSQAIENLLADLNESYNAKNKAWGFFQGESGAYPFSGWLGEYLEGDRDFVGFSREAVEHLQKLMEESNLSTGGHILFAHYQQGMTDYLAIALLHHSEGVAVNESLEVTPSRHLDLGQLHLAARINISEWRNNKQSKQYISFIKGKGGKKVSDYFRDFIGCQEGVDSPSETRTLLKAFSDFVESEDMAEEQAREKTETLVDYATSQARIGEPMTLDALSELMDDQQPRAFYDYIRNKDYGLSPEIPADKRTLNQFRRFTGRAEGLSISFEAHLLGSKVEYDEERDMLIIRQLPTQLKDQLKRRKDLEHHHHHH | not soluble |
| MPITKFIWSPSGTGLSEHAWATSESTGAAWVGNDAAAHISLLRSTVAEELAVPLEQAGMDAATMQRAVDTAIDTWGLRGQAEQDPMTLSSGQTRRLAIAGALITRPEALVLDCPTDGLDTEAIEILHRIVDSFPGNVTVYDRMHTALATTAAEQLRLTSSGDLVPEPAPDPVDTVSARFTPIDLSTDHGPLLCAKNLRIPRGATTVGPISCEVSPSSVTHLAGLNGTGKTSFFLAALGLVASTGTLQVADGVTMGWAPADMDSALSRRTVATELTVGATPELAQAAIEFMGLEQWADTHPLDVPAAWRRFVLIAAALVRGPHLLLLDEPTVNLDAPNHGHLSLLMHRYCAGEFHRMAGLDLGGHHPAVLFTCHDARYAQAVSTAEIRI | not soluble |
| MPITNERKETIRVAKKLNKFIALPSMLNWKVHESDVLRRGRVLCMIRSKNFFFPDDISSLKMRMATVTKHGYLVLYESVDEGLVIDLRSATHILTECDKYKSERIKYSRSHVKVRLPRGNVHMFLRDDDISKWTAALLEAHVSFRPTAAARVVAKPRQQPSKNVETMTAIEPVEVMDSPTSPVTSSNSGLITVLERGVSSEDTLIPSVRRGVIPVNTLRYQIEKHLEMCTPASEQLSKSSDPNISSMYVFHQGIQVKQEPIDDDQEEEQQVQKQLVFKIEGSEDEEAVKKEWWLRSLRC | not soluble |
| MPKIDLIIFDCDGVLVDSEYLAAQIGSQLLKKIGYEISPEELSARYAGLIFPDILKKVEQETGKPTSAHLIDQMSDLFRAQIKTELRAIDGIKEAIEAIQSHYPYCICSNARSTEIKEMLTIVDLYDFFDNKDKIFSAPEVGTKKTKPAPDVFLFAAQQLRVKPKNTIVIEDSIHGVHAATAAGMRVIGFTGGSHSYLGHSNALVEAGAETAIAKHAHLLEVLEAMAVWQDLP | not soluble |
| MPKKAGATSKGKNQTKEPETAPPAAGPVATDPKGFVTIAIHAKPGSRQNAVTDLSTEAVGVAIAAPPSEGEANAELCRYLSKVLDLRKSDVVLDKGGKSREKVVKLLASTTPEEVLEKLKTEAEKK | soluble |
| MPKKRENRGRRKGDKGHVGYISCDQCGARVPEDKAVCVTKMYSPVDASLASELEKKGAIIARYPVTKCYCVNCAVFLGIIKIRAENERKQKARLRLEHHHHHH | not soluble |
